From patent US20240049668A1 (VILMORIN AND CIE, published 2024)
Changes are numbered by the printed parent chain. Like-named read-outs stand apart in the source and are kept apart here.

T1: Movement Protein of ToBRFV (Tomato Brown Rugose Fruit Virus …, UniProt A0A0S2SZW1 1-266)
T1 sequence: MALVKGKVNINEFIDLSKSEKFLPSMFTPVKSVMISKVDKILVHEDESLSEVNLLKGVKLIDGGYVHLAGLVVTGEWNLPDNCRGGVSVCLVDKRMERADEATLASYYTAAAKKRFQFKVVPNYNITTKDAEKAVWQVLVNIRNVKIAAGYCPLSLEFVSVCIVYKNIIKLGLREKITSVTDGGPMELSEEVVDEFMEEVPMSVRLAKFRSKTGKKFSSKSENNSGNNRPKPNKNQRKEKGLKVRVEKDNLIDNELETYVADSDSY

B1: TM2-14-25 encoded by Tm2-14-25 (receptor)
chain: MAEILLTSVINKSVEIAGNLLIQEGKRLYWLKEDIDWLQREMRHIRSYVDNAKAKEAGGDSRVKNLLKDIQELAGDVEDLLDDFLPKIQQSNKFNYCLKRSSFADEFAMEIEKIKRRVVDIDRIRKTYNIIDTDNNNDDCVLLDRRRLFLHADETEIIGLDDDFNMLQAKLLNQDLHYGVVSIVGMPGLGKTTLAKKLYRLIRDQFECSGLVYVSQQPRASEILLDIAKQIGLTEQKMKENLEDNLRSLLKIKRYVILLDDIWDVEIWDDLKLVLPECDSKVGSRMIITSRNSNVGRYIGGESSLHALQPLESEKSFELFTKKIFNFDDNNSWANASPDLVNIGRNIVGRCGGIPLAIVVTAGMLRARERTEHAWNRVLESMGHKVQDGCAKVLALSYNDLPIASRPCFLYFGLYPEDHEIRAFDLINMWIAEKFIVVNSGNRREAEDLAEDVLNDLVSRNLIQLAKRTYNGRISSCRIHDLLHSLCVDLAKESNFFHTAHDAFGDPGNVARLRRITFYSDNVMIEFFRSNPKLEKLRVLFCFAKDPSIFSHMAYFDFKLLHTLVVVMSQSFQAYVTIPSKFGNMTCLRYLRLEGNICGKLPNSIVKLTRLETIDIDRRSLIQPPSGVWESKHLRHLCYRDYGQACNSCFSISSLYPNIYSLHPNNLQTLMWIPDKFFEPRLLHRLINLRKLGILGVSNSTVKMLSIFSPVLKALEVLKLSFSSDPSEQIKLSSYPHIAKLHLNVNRTMALNSQSFPPNLIKLTLAYFSVDRYILAVLKTFPKLRKLKMFICKYNEEKMDLSGEANGYSFPQLEVLHIHSPNGLSEVTCTDDVSMPKLKKLLLTGFHRRISLSERLKKLSK
B2: TM-2-2 protein (product of the Tm-2-2 gene) (receptor)
chain: B1 chain with L655F, R848C
B3: TM2-467 encoded by Tm2-467 (receptor)
chain: B1 chain with L655F

Key:
Assay in all cases: cell-based or functional assay
[1] = target: T1, Movement Protein of ToBRFV
[2] = target: T1, Movement Protein of ToBRFV; remark: listed apart in the source
[3] = target: T1, Movement Protein of ToBRFV; remark: listed apart in the source
[4] = target: T1, Movement Protein of ToBRFV; remark: listed apart in the source
[5] = target: T1, Movement Protein of ToBRFV; remark: listed apart in the source
[6] = target: T1, Movement Protein of ToBRFV; remark: listed apart in the source

Binder	HR when expressed with MP Rugose [1] [HR scale 0-4]	HR to MP Rugose [2] [HR scale 0-4]	HR to MP Rugose [3] [HR scale 0-4]	HR when expressed with MP Rugose [4] [HR scale 0-4]	HR to MP Rugose [5] [HR scale 0-4]	HR to MP Rugose [6] [HR scale 0-4]
B1	4	3	4			
B2	< 1	< 1	< 1	< 1	< 1	< 1
B3	4					
